Assay [1] addresses T1, FcgRIIIa V (human, UniProt P08637 17-208).
T1 construct: extracellular domain; also called FcγRIIIa V; not shown: His tag attached to the C terminus
Put plainly: SPR (Biacore); KD of H240-Kn061/H240-Hl071/L73-k0 divided by KD of the variant. The procedure:
(§1) The antibodies were assessed for the binding to each FcgR. […] The resultant value was defined as relative KD, and used as an assessment indicator.
(§2) Analysis of interaction between obj ective antibody and the FcγR was carried out using Biacore T100 (GE Healthcare), Biacore T200, Biacore A100, and Biacore 4000. HBS-EP+ (GE Healthcare) was used as the running buffer, and the measurement temperature was set to 25° C. Chips produced by immobilizing the antigen peptide by the amine coupling method to a Series S sensor Chip CM5 (GE Healthcare), chips produced by allowing preliminarily biotinylated antigen peptides to interact with and immobilize onto a Series S Sensor Chip SA (certified) (GE Healthcare), chips produced by immobilizing Protein L (ACTIGEN, BioVision) to Series S Sencor Chip CM5 (GE Healthcare), or chips produced by immobilizing Protein A/G (Thermo Scientific) to Series S Sencor Chip CM5 (GE Healthcare) were used. Antibodies of interest were captured onto these chips, and allowed to interact to each FcγR diluted with running buffer.
Background: Surface plasmon resonance follows binding to a sensor surface in real time, without labels.

The target of assay [2] is T2, FcgRIIb (human, UniProt P31994 43-217).
T2 construct: extracellular domain; also called FcγRIIb; not shown: His tag attached to the C terminus
T2 sequence (looked up): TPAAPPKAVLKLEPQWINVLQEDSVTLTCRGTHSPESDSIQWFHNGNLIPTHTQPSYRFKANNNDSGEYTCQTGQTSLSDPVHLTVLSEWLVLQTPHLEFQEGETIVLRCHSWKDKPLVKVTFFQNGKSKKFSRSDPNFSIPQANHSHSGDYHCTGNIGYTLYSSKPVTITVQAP
The assay is described as above. How it is done:
as §1, §2

The target of assay [3] is T3, FcgRIIIa F (human, UniProt P08637 17-208).
T3 construct: extracellular domain; also called FcγRIIIa F; 3aF; not shown: His tag attached to the C terminus
T3 sequence (P08637 17-208): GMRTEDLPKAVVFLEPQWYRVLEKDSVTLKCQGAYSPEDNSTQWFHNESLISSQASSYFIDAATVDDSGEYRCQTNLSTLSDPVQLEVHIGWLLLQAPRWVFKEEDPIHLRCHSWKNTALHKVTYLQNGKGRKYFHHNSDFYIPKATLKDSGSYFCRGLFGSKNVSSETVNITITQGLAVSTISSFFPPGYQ
The assay is described as above. How it is done:
as §1, §2

In assay [4] the target is T4, FcγRIa extracellular domain with C-terminal His tag (human, UniProt P12314 16-292).
T4 construct: extracellular domain; also called FcgRI; CD64; not shown: His tag at the C terminus
T4 sequence (P12314 16-292): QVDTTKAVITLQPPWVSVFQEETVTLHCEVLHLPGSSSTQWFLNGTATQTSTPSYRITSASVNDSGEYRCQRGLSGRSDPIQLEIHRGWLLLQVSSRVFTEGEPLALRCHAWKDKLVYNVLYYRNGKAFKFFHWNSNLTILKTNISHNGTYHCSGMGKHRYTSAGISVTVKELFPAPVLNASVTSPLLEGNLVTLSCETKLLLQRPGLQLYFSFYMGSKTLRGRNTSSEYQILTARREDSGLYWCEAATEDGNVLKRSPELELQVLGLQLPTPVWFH
Put plainly: SPR Biacore, relative FcγRIa binding vs GpH7-A5/GpH7-B3/GpL16-k0.

From patent publication US20180155451A1 (published 2018) come the findings set out here.

T1 sequence (P08637 17-208 F176V limits assumed): as the sequence (P08637 17-208) above, with F160V counted along it

B1: H240-Kn061 (W236Y)/H240-Hl071/L73-k0 (antibody, human IgG1, kappa)
heavy 1: QDQLVQSGAEVKKPGASVKVSCKASGFNIKDTYIQWVRQAPGQGLEWMGRIDPLRKQTKYREKFEGRVTITADTSTNTAYMELSSLRSEDTAVYYCVRSGREFDYWGQGTLVTVSSASTKGPSVFPLAPSSKSTSGGTAALGCLVKDYFPEPVTVSWNSGALTSGVHTFPAVLQSSGLYSLSSVVTVPSSSLGTQTYICNVNHKPSNTKVDKKVEPKSCDKTHTCPPCPAPEYYYGPSVFLFPPKPKDTLMISRTPEVTCVVVDVSDEDPEVKFNWYVDGVEVHNAKTKPREEQYNATYRVVSVLTVLHQDWLNGKEYKCKVSNKALPAPIEKTISKAKGQPREPQVCTLPPSRDELTKNQVSLWCLVKGFYPSDIAVEWESNGQPENNYKTTPPVLDSDGSFFLYSKLTVDKSRWQQGNVFSCSVMHEALHNHYTQKSLSLSP
heavy 2: QDQLVQSGAEVKKPGASVKVSCKASGFNIKDTYIQWVRQAPGQGLEWMGRIDPLRKQTKYREKFEGRVTITADTSTNTAYMELSSLRSEDTAVYYCVRSGREFDYWGQGTLVTVSSASTKGPSVFPLAPSSKSTSGGTAALGCLVKDYFPEPVTVSWNSGALTSGVHTFPAVLQSSGLYSLSSVVTVPSSSLGTQTYICNVNHKPSNTKVDKKVEPKSCDKTHTCPPCPAPELLGGPSVFLFPPKPKDTLMISRTPEVTCVVVDVSHEDPEVKFNWYVDGVEVHNAKTKPREEQYNSTYRVVSVLTVLHQDWLNGKEYKCKVSNDALPMPIEETISKAKGQPREPQVYTLPPSRCELTKNQVSLSCAVKGFYPSDIAVEWESNGQPENNYKTTPPVLDSDGSFFLVSKLTVDKSRWQQGNVFSCSVMHEALHNHYTQKSLSLSP
light: DIQMTQSPSSLSASVGDRVTITCRASQDIHKYIAWYQQKPGQAPRLLIQYTSTLQPGVPSRFSGSGSGTDYTFTISSLQPEDIATYYCLQYEQLRTFGGGTKVEIKRTVAAPSVFIFPPSDEQLKSGTASVVCLLNNFYPREAKVQWKVDNALQSGNSQESVTEQDSKDSTYSLSSTLTLSKADYEKHKVYACEVTHQGLSSPVTKSFNRGEC
As for B1, the results for the “Relative KD” value in assay [1], in assay [2] and in assay [3] were 1.2, 0.8 and 0.8, respectively.

B2: H240-Kn061 (Y234G)/H240-Hl071/L73-k0 (antibody, human IgG1, kappa)
heavy 1: QDQLVQSGAEVKKPGASVKVSCKASGFNIKDTYIQWVRQAPGQGLEWMGRIDPLRKQTKYREKFEGRVTITADTSTNTAYMELSSLRSEDTAVYYCVRSGREFDYWGQGTLVTVSSASTKGPSVFPLAPSSKSTSGGTAALGCLVKDYFPEPVTVSWNSGALTSGVHTFPAVLQSSGLYSLSSVVTVPSSSLGTQTYICNVNHKPSNTKVDKKVEPKSCDKTHTCPPCPAPEGYWGPSVFLFPPKPKDTLMISRTPEVTCVVVDVSDEDPEVKFNWYVDGVEVHNAKTKPREEQYNATYRVVSVLTVLHQDWLNGKEYKCKVSNKALPAPIEKTISKAKGQPREPQVCTLPPSRDELTKNQVSLWCLVKGFYPSDIAVEWESNGQPENNYKTTPPVLDSDGSFFLYSKLTVDKSRWQQGNVFSCSVMHEALHNHYTQKSLSLSP
heavy 2: QDQLVQSGAEVKKPGASVKVSCKASGFNIKDTYIQWVRQAPGQGLEWMGRIDPLRKQTKYREKFEGRVTITADTSTNTAYMELSSLRSEDTAVYYCVRSGREFDYWGQGTLVTVSSASTKGPSVFPLAPSSKSTSGGTAALGCLVKDYFPEPVTVSWNSGALTSGVHTFPAVLQSSGLYSLSSVVTVPSSSLGTQTYICNVNHKPSNTKVDKKVEPKSCDKTHTCPPCPAPELLGGPSVFLFPPKPKDTLMISRTPEVTCVVVDVSHEDPEVKFNWYVDGVEVHNAKTKPREEQYNSTYRVVSVLTVLHQDWLNGKEYKCKVSNDALPMPIEETISKAKGQPREPQVYTLPPSRCELTKNQVSLSCAVKGFYPSDIAVEWESNGQPENNYKTTPPVLDSDGSFFLVSKLTVDKSRWQQGNVFSCSVMHEALHNHYTQKSLSLSP
light: DIQMTQSPSSLSASVGDRVTITCRASQDIHKYIAWYQQKPGQAPRLLIQYTSTLQPGVPSRFSGSGSGTDYTFTISSLQPEDIATYYCLQYEQLRTFGGGTKVEIKRTVAAPSVFIFPPSDEQLKSGTASVVCLLNNFYPREAKVQWKVDNALQSGNSQESVTEQDSKDSTYSLSSTLTLSKADYEKHKVYACEVTHQGLSSPVTKSFNRGEC
On to B2, for which the entries for the “Relative KD” value in assay [1], in assay [2] and in assay [3] were 0.9, 0.9 and 0.8, respectively.

B3: H240-Kn061 (Y234A)/H240-Hl071/L73-k0 (antibody, human IgG1, kappa)
heavy 1: QDQLVQSGAEVKKPGASVKVSCKASGFNIKDTYIQWVRQAPGQGLEWMGRIDPLRKQTKYREKFEGRVTITADTSTNTAYMELSSLRSEDTAVYYCVRSGREFDYWGQGTLVTVSSASTKGPSVFPLAPSSKSTSGGTAALGCLVKDYFPEPVTVSWNSGALTSGVHTFPAVLQSSGLYSLSSVVTVPSSSLGTQTYICNVNHKPSNTKVDKKVEPKSCDKTHTCPPCPAPEAYWGPSVFLFPPKPKDTLMISRTPEVTCVVVDVSDEDPEVKFNWYVDGVEVHNAKTKPREEQYNATYRVVSVLTVLHQDWLNGKEYKCKVSNKALPAPIEKTISKAKGQPREPQVCTLPPSRDELTKNQVSLWCLVKGFYPSDIAVEWESNGQPENNYKTTPPVLDSDGSFFLYSKLTVDKSRWQQGNVFSCSVMHEALHNHYTQKSLSLSP
heavy 2: QDQLVQSGAEVKKPGASVKVSCKASGFNIKDTYIQWVRQAPGQGLEWMGRIDPLRKQTKYREKFEGRVTITADTSTNTAYMELSSLRSEDTAVYYCVRSGREFDYWGQGTLVTVSSASTKGPSVFPLAPSSKSTSGGTAALGCLVKDYFPEPVTVSWNSGALTSGVHTFPAVLQSSGLYSLSSVVTVPSSSLGTQTYICNVNHKPSNTKVDKKVEPKSCDKTHTCPPCPAPELLGGPSVFLFPPKPKDTLMISRTPEVTCVVVDVSHEDPEVKFNWYVDGVEVHNAKTKPREEQYNSTYRVVSVLTVLHQDWLNGKEYKCKVSNDALPMPIEETISKAKGQPREPQVYTLPPSRCELTKNQVSLSCAVKGFYPSDIAVEWESNGQPENNYKTTPPVLDSDGSFFLVSKLTVDKSRWQQGNVFSCSVMHEALHNHYTQKSLSLSP
light: DIQMTQSPSSLSASVGDRVTITCRASQDIHKYIAWYQQKPGQAPRLLIQYTSTLQPGVPSRFSGSGSGTDYTFTISSLQPEDIATYYCLQYEQLRTFGGGTKVEIKRTVAAPSVFIFPPSDEQLKSGTASVVCLLNNFYPREAKVQWKVDNALQSGNSQESVTEQDSKDSTYSLSSTLTLSKADYEKHKVYACEVTHQGLSSPVTKSFNRGEC
Consider B3, for which the results for the “Relative KD” value in assay [1], in assay [2] and in assay [3] were 0.9, 1.2 and 0.8, respectively.

B4: GpH7-A5/GpH7-B3 variant Q295_16H/GpL16-k0 (antibody, human IgG1, kappa)
heavy 1: not shown
heavy 2: not shown
light: DIVMTQSPLSLPVTPGEPASISCQASESLVHSNRNTYLHWYLQKPGQSPQLLIYKVSNRFSGVPDRFSGSGSGTDFTLKISRVEAEDVGVYYCSQNTHVPPTFGQGTKVEIERTVAAPSVFIFPPSDEQLKSGTASVVCLLNNFYPREAKVQWKVDNALQSGNSQESVTEQDSKDSTYSLSSTLTLSKADYEKHKVYACEVTHQGLSSPVTKSFNRGEC
notes: mutation in one H chain only; also called He Ab Q295_16H; Q295H
Take B4: the He/Con_1a in assay [4] is 102 % of HeCon Ab (=100).

B5: GpH7-A5/GpH7-B3 variant S239_01G/GpL16-k0 (antibody, human IgG1, kappa)
heavy 1: not shown
heavy 2: not shown
light: DIVMTQSPLSLPVTPGEPASISCQASESLVHSNRNTYLHWYLQKPGQSPQLLIYKVSNRFSGVPDRFSGSGSGTDFTLKISRVEAEDVGVYYCSQNTHVPPTFGQGTKVEIERTVAAPSVFIFPPSDEQLKSGTASVVCLLNNFYPREAKVQWKVDNALQSGNSQESVTEQDSKDSTYSLSSTLTLSKADYEKHKVYACEVTHQGLSSPVTKSFNRGEC
notes: mutation in one H chain only; also called He Ab S239_01G; S239G
For B5, in assay [4], the He/Con_1a was 101 % of HeCon Ab (=100).

B6: GpH7-A5/GpH7-B3 variant Q295_18N/GpL16-k0 (antibody, human IgG1, kappa)
heavy 1: not shown
heavy 2: not shown
light: DIVMTQSPLSLPVTPGEPASISCQASESLVHSNRNTYLHWYLQKPGQSPQLLIYKVSNRFSGVPDRFSGSGSGTDFTLKISRVEAEDVGVYYCSQNTHVPPTFGQGTKVEIERTVAAPSVFIFPPSDEQLKSGTASVVCLLNNFYPREAKVQWKVDNALQSGNSQESVTEQDSKDSTYSLSSTLTLSKADYEKHKVYACEVTHQGLSSPVTKSFNRGEC
notes: mutation in one H chain only; also called He Ab Q295_18N; Q295N
Regarding B6, the He/Con_1a in assay [4] was 102 % of HeCon Ab (=100).
